# Laboratory results reported in the RNAGym collection of RNA variant scans (doi:10.1073/pnas.2313332121).
# This sample holds only a part of the variants without activity.
# B1: TPR 5TU (parent)
# chain: GGAUCUUCUCGAUCUAACAAAAAAGACAAAUCUGCCACAAAGCUUGAGAGCAUCUUCGGAUGCAGAGGCGGCAGCCUUCGGUGGCGCGAUAGCGCCAACGUUCUCAACUAUGACACGCAAAACGCGUGCUCCGUUGAAUGGAGUUUAUCAUG
# Variants of: B1
# Experiment: polymerase ribozyme fitness, log enrichment relative to wild type (log ratio); higher = more active; in vitro selection for triplet polymerase activity
# Summary of the method: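 In triplicate, a single round of in vitro selection was run on each mutant library, PCR-built and transcribed, covering one subunit of a heterodimeric triplet polymerase ribozyme. Frozen incubation at −7 °C followed annealing with a biotinylated primer, partner subunit and triplets, and extended constructs were then gel-excised, streptavidin-captured and taken through RT-PCR. Fitness is the logarithm of genotype enrichment over wild-type enrichment, from inverse-variance-weighted replicate averages of Illumina-sequenced inputs and outputs. […] only genotypes with ≥10 input reads and ≥1 read per output were kept.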
row,Variant,polymerase ribozyme fitness (log ratio)
1,GGAUCUUCUCGAUCUAACAAAAAAGACAAAUCUGUCACAAAGCUUGAGAGCAUCUUCAGCUGCAGAGGCGGCAGCCUUCGGUGGCGCGAUAGGGCUAACGUUCUUAACUAUGACAUGCAAAACGCGUGCUCCGUUGAAUGGAGUUUAUCAUG [C35U G58A A60C C93G C96U C105U C116U],≤ -4.2
2,GGAUGUUCUCGAUCUAACAGAAAAGAAAAAUCUGCCACAAAGCUUGAGAGCAUCUUCGGAUGCAGAGGCGGUAGCCUUCGGUGGCGCGAUAGCGCCAACGUUCUCAACUAUGACACGCAUAACGCGUGCUCCGUUGAAUGGAGUUUAUCAUG [C5G A20G C27A C72U A120U],≤ -4.2
3,GGAUCUUCUCGAUCUUACAAAAAAGACAAAUCUGCCAAAAAGCUUGAGAGCAUCUUCGGAUGCAGAGGCGGCAGACUUCGGUGGCGCGAUAGCGCCAACGUUCUCAACUAUGAUACGCAAAACGCGUGCUCCGUUGAAUGGAUUUUAUCAUG [A16U C38A C75A C114U G143U],≤ -4.2
4,GGAUCUUCUCGAUCUAACAAAAAAGACAAAUCUGCCACAAAGCUUGACAGCAUCUUCGGAUGCAGAGGCGGCAGCCUUCGGUGGCGCGAUAGCGCCAACGUUCUCAACUAUGCCACGCAAAACGCGUGCUCCGUUGAAUGGAGUUUACCAUG [G48C A113C U148C],≤ -4.2
5,GGAUCUUCUCGAUCUAACAAUAAAGACAAAUCUGCCACAAAGCUUGAGAACAUCUUCGGAUGGAGAGGCGGCAGCCUUCGGUGGCGCGGUAGCGUCAACGUUCUCAACUAUGACAUGCAAAACGCGUGCUCCGUUGAAUGGAGUUUAUCAUG [A21U G50A C63G A89G C95U C116U],-1.96
6,GGAUCUUCUCGAUCUAACAAAAAAGACAAAUCUGCCACAACGCUUGAGAGCAUCUUCGGAUGCAGAGGCGGCAGCCUUCGGUGGCGCGAUAGCGCCAACGUUCUCCACUAUGACACGCAAAACGCGUGCUCCGUUGAAUGGAGUUUAUCAUG [A41C A106C],-0.881
7,GGAUCUUCUCGAUCUAACAAAAAUGACAAAUCUGCCACCAAGCUUGAGAGCAUCUUCGGAUGCAGAGGCGGCAGCCUUCGGUGGCGCGAUAUCGCCAACGUUCUCAACUAUGACACGCAAAACGCGUGCUCCGUUGAAUGGAGGUUAGCAUG [A24U A39C G92U U144G U148G],≤ -4.2
8,GGAUCUUCUCGAUCUAACAAAAAAUACAAAUCUGACACAAGGCUUGAGAGCAUUUUCGGAUGCAGAGGCGGCAGCCUUCGGUGGCGUGAUAGCGUCAACGUUCUCAACUAUGACACGCAAAACGCGUGCUCCGUUGAAUGGAGUUUAUCAUG [G25U C35A A41G C54U C87U C95U],-3.99
9,GGAUCUUCUCGAUCUAACGAAAAAUACAAAUCUGCCACAAAGCUUGCGAGCAUCUUCGGAUGCAGAGGCGGCAGCCUCCGGUGGCGCGAUAGCGCAAACGUUCUCAACUAUGACACGCAAAACGCGUGCUCCGUUGAAUGGAGUUUAUCAUG [A19G G25U A47C U78C C96A],≤ -4.2
10,GGAUCUUCUCGAUCUGACAAAAAAGACGAAUCUGCCACAAAGCUUGAGAGCAUCUUCGAAUGCAGAGGCGGCAGCCUUCAGUCGCGUGAUAGCGCCAACGUUCUCAACUAUGACACGCAAAACGCGUGCUCCGUUGAAUGGAGUUUAUCAUG [A16G A28G G59A G80A G83C C87U],≤ -4.2
11,GGAUCUUCUCGAUCUUACAAAGAAGACAAAUCUGCCACAAAGCUUGAGAGCAUCUUAGGAUGCAGAGGCGGCAGCCUUCGGUGGCGCGAUAGCGCCAACGUUCUCAACUAUGACACGCAAAACGCGUGCUCCGUAGAAUGGAGUUUAUCAUG [A16U A22G C57A U135A],-3.06
12,GGAUCUUCUCGAUCUAACAAAAAAGACAAAUCUGCCACAAAGCUUGAGAGCAUCUUCGGAUGCAGAGGCGGCAGCCUUCGGUGGGGCGAUAGCGCCAACGUUCUCAACUAUGACACGCAAAACGCGUGCUCCGUUGAAUGGCGUUUAUCAUG [C85G A142C],-2.98
13,GGAUCUUCUCGAUCUAACAAAAAAGACAAAUCUGCCAUAAAGCUUGAGAGCAUCUUCGGAUGCAGAGGCGGCAGCCUUCGGUGGCGCGAUAGCGCGAACGUUCUCAACUAUGACACGCAAAACGCGUGCUCCGUUGAAUGGAGUUUAUCAUU [C38U C96G G152U],-3.85
14,GGAUCUUCUCGAUCAAACAAAAAAGACAAAUCUGCCACAAAGCUUGAGAGCCUCUUCGGAUGCAGCGGCGGCAGCCUUCGGUGUCGCGAUAGCGCCAACGUUCUCAACUAUGACACGCAAAACGCGUGCUCCGUUGAAUGGAGUUUAUCAUG [U15A A52C A66C G84U],≤ -4.2
15,GGAUCUUCUCGAUCUAACAAAAAAGACAAAUCUGCCACAAAGCUUGAGAGCAUCUACGGAUGCAGAGGUGGCAGCCUUCGGUGGCGCGAUAGCGCCAACGUUCUCAACUAUGACACGCAAAACGCGUGUUCCGUUGAAUGGAGUUUAUCAUG [U56A C69U C129U],-0.94
16,GGCUCUUCUCGAUCUAACAAAAAAGACAAAUCUGCCACAAAGCUUGAGAGCAUCUUCGGAUGCAGAGGCGGCAGCCUUCGGUGGCGCGAUAGAGCCAUCGUUCUCAACUAUGACACGCAAAACGCGUGCUCCGUUGAAUGGAGUUUAUCAUG [A3C C93A A98U],-1.79
17,GGAUCUUCUCGUUCUAACAAAGAAGACACAUCUGCCACAAAUCUUGAGAGCAUCUUCGGAUGCAGAGGCGGCAGCCUUCGGUGGCGUGAUAGAGCCAACGUUCUCAACUAUGACACGCAAAACGCGUGCUCCGUUGAAUGGAGUUUAUCAUG [A12U A22G A29C G42U C87U C93A],≤ -4.2
18,GGAUCUUCUCGAUCUAACAAAAAAGACAAAUCUGGCACAAAGCUUGAGAGCAUCUUCGGAUGCAGAGCCGGCAGCCUUCGGUGGCGCGAUAGCGCCAACGUUCUCAACUAUGACACGCAAAACGAGUGCUCCGUUGAAUGGAGUUUAUCAUG [C35G G68C C125A],-4.18
19,GGAUCUUCUCGAUCUAACAAAAAAGACAAAUCUGCCACAAGGCUUGAGAGCAUCUUCGGAUGCAGAGGCGGCAGGCUUCGGUGGCGCGAUAGCGCCAACGUUCUCAACUAUGACACGCAAAACGCGUGCUCCGUUGAAUGGAGUUUAUCAUG [A41G C75G],-2.98
